Like-named read-outs stand apart in the source and are kept apart here. Blank lines part the entries; values can stand above or below the binder they belong to.
Columns and labels:
[1] = target: T1, recombinant monkey TfR (r monkey TfR, Sino Biological Inc.), extracellular region of cynomolgus monkey TfR … (cynomolgus monkey (Macaca fascicularis), UniProt Q5RDH6 89-760 (Pongo abelii entry)); assay: BLI (OctetRED96)
T1 construct: not shown: histidine tag added to the N-terminus
T1 chain: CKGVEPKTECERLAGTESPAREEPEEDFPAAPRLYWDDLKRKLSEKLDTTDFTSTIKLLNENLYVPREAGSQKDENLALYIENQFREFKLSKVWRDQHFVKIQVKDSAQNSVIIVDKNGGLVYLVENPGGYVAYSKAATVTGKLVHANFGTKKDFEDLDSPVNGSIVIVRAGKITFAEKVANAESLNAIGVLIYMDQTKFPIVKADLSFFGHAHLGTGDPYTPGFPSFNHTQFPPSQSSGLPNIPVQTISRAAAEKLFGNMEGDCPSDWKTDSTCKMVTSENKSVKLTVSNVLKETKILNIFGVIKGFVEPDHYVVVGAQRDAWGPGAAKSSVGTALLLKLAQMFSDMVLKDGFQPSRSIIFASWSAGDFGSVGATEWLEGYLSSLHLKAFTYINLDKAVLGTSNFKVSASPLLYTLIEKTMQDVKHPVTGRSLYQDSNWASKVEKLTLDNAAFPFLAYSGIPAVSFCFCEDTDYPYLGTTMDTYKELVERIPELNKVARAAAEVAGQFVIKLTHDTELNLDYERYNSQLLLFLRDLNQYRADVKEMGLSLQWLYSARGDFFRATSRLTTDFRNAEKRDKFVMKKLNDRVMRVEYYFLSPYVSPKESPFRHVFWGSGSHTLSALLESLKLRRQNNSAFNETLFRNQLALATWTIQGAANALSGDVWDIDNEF

[2] = target: human TrkB (GenBank Acc. No. NP_001018074.1) expressed in CHO cells (CHO-TrkB cells) (human, UniProt Q16620 32-822); assay: cell-based or functional assay
Chain of human TrkB (GenBank Acc. No. NP_001018074.1) expressed in CHO cells (CHO-TrkB cells) (Q16620 32-822): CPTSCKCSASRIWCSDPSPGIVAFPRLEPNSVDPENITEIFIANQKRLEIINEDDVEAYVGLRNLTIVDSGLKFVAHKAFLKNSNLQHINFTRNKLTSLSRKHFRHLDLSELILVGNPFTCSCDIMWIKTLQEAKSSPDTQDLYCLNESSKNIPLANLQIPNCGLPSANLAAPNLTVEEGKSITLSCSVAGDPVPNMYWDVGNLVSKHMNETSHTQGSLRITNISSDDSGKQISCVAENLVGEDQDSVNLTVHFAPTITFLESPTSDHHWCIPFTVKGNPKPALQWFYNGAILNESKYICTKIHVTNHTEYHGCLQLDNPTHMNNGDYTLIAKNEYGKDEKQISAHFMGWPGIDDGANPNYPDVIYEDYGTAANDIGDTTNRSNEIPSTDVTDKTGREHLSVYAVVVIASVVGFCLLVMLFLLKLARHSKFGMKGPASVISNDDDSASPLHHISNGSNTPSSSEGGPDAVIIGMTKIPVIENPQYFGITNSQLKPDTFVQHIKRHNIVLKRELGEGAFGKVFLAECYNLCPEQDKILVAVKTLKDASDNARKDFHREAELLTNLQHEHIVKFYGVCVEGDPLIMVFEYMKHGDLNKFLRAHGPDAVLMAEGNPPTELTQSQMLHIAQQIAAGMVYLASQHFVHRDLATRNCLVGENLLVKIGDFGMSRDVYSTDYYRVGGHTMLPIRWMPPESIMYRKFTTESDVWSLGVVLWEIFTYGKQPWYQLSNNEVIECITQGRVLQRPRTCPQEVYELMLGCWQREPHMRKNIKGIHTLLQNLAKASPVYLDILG

[3] = target: T2, recombinant human TfR (r human TfR, Sino Biological Inc.), extracellular region of hTfR with N-terminal … (human, UniProt P02786 89-760); assay: BLI (OctetRED96); fusion protein captured via biotin-labeled anti-human BDNF antibody on SA biosensor, TfR in solution
T2 construct: also called r human TfR-ECD (Histag); recombinant hTfR; not shown: histidine tag added to the N-terminus
Protocol: (§1) Affinities of the hBDNF-anti-hTfR antibody (3N) 1 prepared in Example 22, to human TfR and to monkey TfR were measured. The measurement was generally performed by the following method. The biotin-labeled rabbit anti-human BDNF polyclonal antibodies (anti-human BDNF antibodies: PeproTech Corporation) was diluted with HBS-P+(1% BSA) (10 mM HEPES containing 150 mM NaCl, 50 μM EDTA, 0.05% Surfactant P20, and 1% BSA) to prepare the 15 μg/mL of solution, and the solution was designated as ligand solution 1. The purified product of an anti-hTfR antibody fusion BDNF (hBDNF-anti-hTfR antibody (3N) 1) was diluted with HBS-P+(1% BSA), and the solution was designated as ligand solution 2. And, as the reference control sample, the purified product of the hBDNF-anti-hTfR antibody (3) 1 obtained in Example 15-3 was also diluted with HBS-P+(1% BSA) to prepare ligand solution 3. r human TfR and r monkey TfR were respectively two fold serial diluted with HBS-P+(1% BSA) to prepare seven different concentrations of 0.78125 to 50 nM ([…] to 3.74 μg/mL). These TfR solution were used as TfR sample solutions.
(§2) The OctetRED96 was run under the condition shown in the following Table 15-3 to immobilize the anti-human BDNF antibody onto the sensor. Subsequently, after the OctetRED96 was run under the condition shown in the following Table 15-4 to obtain data, binding interaction curve was fitted to a 1:1 binding model or to a 2:1 binding model using the analysis software attached to the OctetRED96, the association rate constant (kon) and the dissociation rate constant (koff) of the anti-hTfR antibody fusion BDNF to r human TfR, and to r monkey TfR were measured, and the dissociation constant (KD) were calculated. The measurement was performed at 25° C. to 30° C.

[4] = target: T1, recombinant monkey TfR (r monkey TfR, …); assay: as above
Protocol: as §1, §2

[5] = target: T3, human serum albumin preparation (HSA) (blood donation albumin 25-Nichiyaku, Nihon Pharmaceutical Co., Ltd.) (human, UniProt P02768 25-609); assay: BLI (OctetRED96); fusion protein captured via biotin-labeled anti-human BDNF antibody on SA biosensor, HSA in solution
T3 construct: mature
T3 sequence (P02768 25-609): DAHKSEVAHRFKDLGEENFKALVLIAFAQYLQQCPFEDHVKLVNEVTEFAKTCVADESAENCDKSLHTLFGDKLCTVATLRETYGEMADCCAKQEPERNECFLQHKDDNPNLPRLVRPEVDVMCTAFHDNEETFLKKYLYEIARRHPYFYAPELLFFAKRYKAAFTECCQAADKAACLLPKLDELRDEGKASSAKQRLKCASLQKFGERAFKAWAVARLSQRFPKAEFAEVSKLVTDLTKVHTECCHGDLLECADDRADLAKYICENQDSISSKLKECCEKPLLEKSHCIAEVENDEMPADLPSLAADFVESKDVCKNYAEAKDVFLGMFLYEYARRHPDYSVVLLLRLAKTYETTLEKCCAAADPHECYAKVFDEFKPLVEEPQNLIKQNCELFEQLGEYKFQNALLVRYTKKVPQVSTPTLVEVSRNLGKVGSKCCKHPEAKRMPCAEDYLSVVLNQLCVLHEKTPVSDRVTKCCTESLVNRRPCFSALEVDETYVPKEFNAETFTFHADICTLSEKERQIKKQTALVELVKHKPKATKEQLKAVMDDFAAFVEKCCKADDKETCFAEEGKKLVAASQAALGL
Protocol: (§3) Affinities of a hBDNF-anti-hTfR antibody (3N) ABD to human TfR, monkey TfR, and human serum albumin (HSA) were measured on OctetRED96 (ForteBio Corporation, a division of Pall Corporation) which is a system for biomolecular interaction analysis utilizing biolayer interferometry (BLI), as same as Example 25. The measurement was generally performed by operation manual attached to the OctetRED96.
(§4) The biotin-labeled rabbit anti-human BDNF polyclonal antibodies (anti-human BDNF antibody: PeproTech Corporation) was diluted with HBS-P+(1% BSA) (10 mM HEPES containing 150 mM NaCl, 50 μM EDTA, 0.05% Surfactant P20, and 1% BSA) to prepare 25 μg/mL of solution, and the solution was designated as ligand solution 1. A purified product of an hBDNF-anti-hTfR antibody (3N) ABD was diluted with HBS-P+, and the solution was designated as ligand solution 2. r human TfR and r monkey TfR were respectively two-fold serial diluted with HBS-P+ to prepare seven-different concentration of 0.78125 to 50 nM (0.0585 to 3.74 μg/mL). These TfR solution were designated as a TfR sample solution. The r human TfR and the r monkey TfR, those described in Example 7 were used. And, human serum albumin preparation (HSA) (blood donation albumin 25-Nichiyaku, Nihon Pharmaceutical Co., Ltd.) was two-fold serial diluted with HBS-P+ to prepare solution of seven-different concentration of 3.13 to 200 nM (0.208 to 13.3 μg/mL). The HSA solution were designated as an HSA sample solution.
The OctetRED96 was run under the condition shown in the following Table 15-3 described in Example 25 to immobilize the anti-human BDNF antibody onto the sensor. Subsequently, after the OctetRED96 was run under the condition shown in Table 16-2 to obtain data, binding interaction curve was fitted to a 1:1 binding model using the analysis software attached to the OctetRED96, the association rate constant (kon) and the dissociation rate constant (koff) of the hBDNF-anti-hTfR antibody (3N) ABD, to r human TfR, r monkey TfR, and HSA were measured, and a dissociation constant (KD) were calculated. […]

[6] = target: TrkB receptor on rat primary cultured neurons (corpus striatum of rat embryo) (rat, UniProt Q63604 32-821); assay: cell-based or functional assay
Chain of TrkB receptor on rat primary cultured neurons (corpus striatum of rat embryo) (Q63604 32-821): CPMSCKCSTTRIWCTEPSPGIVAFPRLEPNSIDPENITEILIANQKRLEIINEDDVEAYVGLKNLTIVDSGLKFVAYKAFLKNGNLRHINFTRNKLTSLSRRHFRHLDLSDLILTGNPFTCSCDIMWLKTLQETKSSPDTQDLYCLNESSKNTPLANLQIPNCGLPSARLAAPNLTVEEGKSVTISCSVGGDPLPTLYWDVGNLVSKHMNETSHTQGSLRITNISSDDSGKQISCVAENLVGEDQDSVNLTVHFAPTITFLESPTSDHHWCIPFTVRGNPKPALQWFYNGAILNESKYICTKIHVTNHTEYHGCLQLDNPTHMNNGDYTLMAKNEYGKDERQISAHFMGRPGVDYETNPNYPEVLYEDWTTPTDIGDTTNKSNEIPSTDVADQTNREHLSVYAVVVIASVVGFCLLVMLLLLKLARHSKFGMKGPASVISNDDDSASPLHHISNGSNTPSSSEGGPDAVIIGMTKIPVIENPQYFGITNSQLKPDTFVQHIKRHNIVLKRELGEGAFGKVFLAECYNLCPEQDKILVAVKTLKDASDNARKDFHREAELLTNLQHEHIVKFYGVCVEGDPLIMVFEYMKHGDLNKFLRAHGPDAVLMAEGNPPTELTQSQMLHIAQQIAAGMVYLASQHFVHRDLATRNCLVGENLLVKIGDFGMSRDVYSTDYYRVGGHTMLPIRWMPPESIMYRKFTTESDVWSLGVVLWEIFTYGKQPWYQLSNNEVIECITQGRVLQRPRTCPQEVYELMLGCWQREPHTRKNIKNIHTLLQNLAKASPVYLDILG

[7] = target: T2, recombinant human TfR (r human TfR, …); assay: BLI (OctetRED96); fusion protein captured via biotin-labeled anti-human BDNF antibody on SA biosensor, TfR in solution; remark: listed apart in the source
Protocol: as §3, §4
(§5) The OctetRED96 was run under the condition shown in the following Table 15-3 described in Example 25 to immobilize the anti-human BDNF antibody onto the sensor. Subsequently, after the OctetRED96 was run under the condition shown in Table 16-2 to obtain data, binding interaction curve was fitted to a 1:1 binding model using the analysis software attached to the OctetRED96, the association rate constant (kon) and the dissociation rate constant (koff) of the hBDNF-anti-hTfR antibody (3N) ABD, to r human TfR, r monkey TfR, and HSA were measured, and a dissociation constant (KD) were calculated. The measurement was performed at 25° C. to 30° C.

[8] = target: T1, recombinant monkey TfR (r monkey TfR, …); assay: as above
Protocol: as §3, §4, §5

KD relative to that of the humanized anti-hTfR antibody No. 3 [1]: ~0.033 fold
affinity relative to that of the humanized anti-hTfR antibody No. 3 [1]: ~30 fold
B1: humanized anti-hTfR antibody No. 3N (antibody, human IgG1, kappa, V domains shown)
VH: EVQLVQSGAEVKKPGESLKISCKGSGYSFMNYWLGWVRQMPGKGLEWMGDIYPGGDYPTYSEKFKVQVTISADKSISTAYLQLSSLKASDTAMYYCARSGNYDEVAYWGQGTLVTVSS
VL: DIVMTQTPLSLSVTPGQPASISCRSSQSLVHSNGNTYLHWYLQKPGQSPQLLIYKVSNRFSGVPDRFSGSGSGTDFTLKISRVEAEDVGVYYCSQSTHVPWTFGQGTKVEIKR
notes: IgG1; Same light chain as humanized No. 3; also called Humanized anti-hTfR antibody 3N

BDNF activity (TrkB agonistic: EC50, nmol/L) [2]: 0.16 nmol/L
Kd [3]: 251 pM
Kd [4]: 39400 pM
B2: hBDNF-anti-hTfR antibody (3) 1 (other)
heavy: HSDPARRGELSVCDSISEWVTAADKKTAVDMSGGTVTVLEKVPVSKGQLKQYFYETKCNPMGYTKEGCRGIDKRHWNSQCRTTQSYVRALTMDSKKRIGWRFIRIDTSCVCTLTIKRGRGSGGGGSGGGGSGGGGSGGGGSGGGGSEVQLVQSGAEVKKPGESLKISCKGSGYSFTNYWLGWVRQMPGKGLEWMGDIYPGGDYPTYSEKFKVQVTISADKSISTAYLQWSSLKASDTAMYYCARSGNYDEVAYWGQGTLVTVSSASTKGPSVFPLAPSSKSTSGGTAALGCLVKDYFPEPVTVSWNSGALTSGVHTFPAVLQSSGLYSLSSVVTVPSSSLGTQTYICNVNHKPSNTKVDKKVEPKSCDKTHT
light: DIVMTQTPLSLSVTPGQPASISCRSSQSLVHSNGNTYLHWYLQKPGQSPQLLIYKVSNRFSGVPDRFSGSGSGTDFTLKISRVEAEDVGVYYCSQSTHVPWTFGQGTKVEIKRTVAAPSVFIFPPSDEQLKSGTASVVCLLNNFYPREAKVQWKVDNALQSGNSQESVTEQDSKDSTYSLSSTLTLSKADYEKHKVYACEVTHQGLSSPVTKSFNRGEC

BDNF activity (TrkB agonistic: EC50, nmol/L) [2]: 0.3 nmol/L
Kd [5]: 13500 pM
koff [5]: 0.000829 s⁻¹
kon [5]: 61300 M⁻¹ s⁻¹
Erk phosphorylation activity (EC50, nmol/L) [6]: 0.02 nmol/L
Kd [7]: 56.6 pM
koff [7]: 4e-05 s⁻¹
kon [7]: 707000 M⁻¹ s⁻¹
Kd [8]: 626 pM
koff [8]: 0.000145 s⁻¹
kon [8]: 231000 M⁻¹ s⁻¹
B3: hBDNF-anti-hTfR antibody (3N) ABD (other)
heavy: HSDPARRGELSVCDSISEWVTAADKKTAVDMSGGTVTVLEKVPVSKGQLKQYFYETKCNPMGYTKEGCRGIDKRHWNSQCRTTQSYVRALTMDSKKRIGWRFIRIDTSCVCTLTIKRGRGGGGSGGGGSGGGGSGGGGSGGGGSEVQLVQSGAEVKKPGESLKISCKGSGYSFMNYWLGWVRQMPGKGLEWMGDIYPGGDYPTYSEKFKVQVTISADKSISTAYLQLSSLKASDTAMYYCARSGNYDEVAYWGQGTLVTVSSASTKGPSVFPLAPSSKSTSGGTAALGCLVKDYFPEPVTVSWNSGALTSGVHTFPAVLQSSGLYSLSSVVTVPSSSLGTQTYICNVNHKPSNTKVDKKVGGGGSGGGGSGGGGSLAEAKVLALRELDKYGVSDYYKDLIDKAKTVEGVKALIDEILAALP
light: B2 light
notes: BDNF-Fab-ABD fusion

BDNF activity (TrkB agonistic: EC50, nmol/L) [2]: 0.43 nmol/L
Kd [3]: 7.42 pM
koff [3]: 3.54e-06 s⁻¹
kon [3]: 477000 M⁻¹ s⁻¹
Kd [4]: 794 pM
koff [4]: 0.000196 s⁻¹
kon [4]: 245000 M⁻¹ s⁻¹
Erk phosphorylation activity (EC50, nmol/L) [6]: 0.02 nmol/L
B4: hBDNF-anti-hTfR antibody (3N) 1 (other)
heavy: HSDPARRGELSVCDSISEWVTAADKKTAVDMSGGTVTVLEKVPVSKGQLKQYFYETKCNPMGYTKEGCRGIDKRHWNSQCRTTQSYVRALTMDSKKRIGWRFIRIDTSCVCTLTIKRGRGGGGSGGGGSGGGGSGGGGSGGGGSEVQLVQSGAEVKKPGESLKISCKGSGYSFMNYWLGWVRQMPGKGLEWMGDIYPGGDYPTYSEKFKVQVTISADKSISTAYLQLSSLKASDTAMYYCARSGNYDEVAYWGQGTLVTVSSASTKGPSVFPLAPSSKSTSGGTAALGCLVKDYFPEPVTVSWNSGALTSGVHTFPAVLQSSGLYSLSSVVTVPSSSLGTQTYICNVNHKPSNTKVDKKVEPKSCDKTHT
light: B2 light
notes: copies set to 2 on that ground; also called anti-hTfR antibody fusion BDNF; hBDNF-humanized anti-hTfR antibody fusion protein
